Data taken from patent US20250326814A1 (OPKO BIOLOGICS, published 2025).
Non-standard residues stand in square brackets, D forms with d. No end group written: not given here. *: point of attachment. X2 = Eicosanedioic‑γGlu‑(AEEA)2‑Lys(Ac)‑Gly, CC(=O)NCCCC[C@H](NC(=O)COCCOCCNC(=O)COCCOCCNC(=O)CC[C@H](NC(=O)CCCCCCCCCCCCCCCCCCC(=O)O)C(=O)O)C(=O)NCC(=O)*; Aib = CC(C)(N)C(=O)O

B1: OPK-88003 FA mono conjugate (modified OXM of Formula XXII or Formula XXIII; in Table 9 a mixture of both) (peptide)
peptide: HXQGTFTSDYSKYLDSKKAQEFVQWLLNXGRNRNNIACC
modifications: Aib at positions 2 and 29; one Eicosanedioic-gGlu-Glu-AEEA-AEEA-AEEA-Lys(Ac-)-Gly-OH binder on Cys38 (Formula XXII, SEQ ID NO: 47) or on Cys39 (Formula XXIII, SEQ ID NO: 48); C-terminal amide (backbone C^38C^39-NH2)
B2: MOD-604 KPI (mutated OXM analog of any one of SEQ ID NOs: 5 to 7) (peptide)
peptide: HXQGTFTSDYSKYLDSKKAQEFVQWLLNXGRNRNNIAC
HELM: PEPTIDE1{H.[Aib].Q.G.T.F.T.S.D.Y.S.K.Y.L.D.S.K.K.A.Q.E.F.V.Q.W.L.L.N.[Aib].G.R.N.R.N.N.I.A.C.[am]}$$$$V2.0; N-terminus assumed
SMILES: CC[C@H](C)[C@H](NC(=O)[C@H](CC(N)=O)NC(=O)[C@H](CC(N)=O)NC(=O)[C@H](CCCNC(=N)N)NC(=O)[C@H](CC(N)=O)NC(=O)[C@H](CCCNC(=N)N)NC(=O)CNC(=O)C(C)(C)NC(=O)[C@H](CC(N)=O)NC(=O)[C@H](CC(C)C)NC(=O)[C@H](CC(C)C)NC(=O)[C@H](Cc1c[nH]c2ccccc12)NC(=O)[C@H](CCC(N)=O)NC(=O)[C@@H](NC(=O)[C@H](Cc1ccccc1)NC(=O)[C@H](CCC(=O)O)NC(=O)[C@H](CCC(N)=O)NC(=O)[C@H](C)NC(=O)[C@H](CCCCN)NC(=O)[C@H](CCCCN)NC(=O)[C@H](CO)NC(=O)[C@H](CC(=O)O)NC(=O)[C@H](CC(C)C)NC(=O)[C@H](Cc1ccc(O)cc1)NC(=O)[C@H](CCCCN)NC(=O)[C@H](CO)NC(=O)[C@H](Cc1ccc(O)cc1)NC(=O)[C@H](CC(=O)O)NC(=O)[C@H](CO)NC(=O)[C@@H](NC(=O)[C@H](Cc1ccccc1)NC(=O)[C@@H](NC(=O)CNC(=O)[C@H](CCC(N)=O)NC(=O)C(C)(C)NC(=O)[C@@H](N)Cc1c[nH]cn1)[C@@H](C)O)[C@@H](C)O)C(C)C)C(=O)N[C@@H](C)C(=O)N[C@@H](CS)C(N)=O
B3: Variant 3 (Formula XVI) (peptide)
peptide: H[Aib]QGTFTSDYSKYLDSKKAQEFVQWLLN[Aib]GRNRNNIAC(Eicosanedioic‑γGlu‑Glu‑(AEEA)3‑Lys(Ac)‑Gly)-NH2
B4: OPK-88604 (modified OXM of Formula XIV) (peptide)
peptide: H[Aib]QGTFTSDYSKYLDSKKAQEFVQWLLN[Aib]GRNRNNIAC(X2)-NH2
B5: Variant 2 (Formula XV) (peptide)
peptide: H[Aib]QGTFTSDYSKYLDSKKAQEFVQWLLN[Aib]GRNRNNIAC-NH2
modifications: not fully specified (residue 38)

Assays:
Experiment in all cases: cell-based or functional assay
[1] = molecular target: glucagon-like peptide-1 receptor (GLP-1R)
glucagon receptor (GCGR) [2] = molecular target: glucagon receptor (GCGR)
[3] = molecular target: glucagon-like peptide-1 receptor (GLP-1R); remark: listed apart in the source
glucagon receptor (GCGR) [4] = molecular target: glucagon receptor (GCGR); remark: listed apart in the source
[5] = molecular target: glucagon-like peptide-1 receptor (GLP-1R); remark: listed apart in the source
[6] = molecular target: glucagon-like peptide-1 receptor (GLP-1R); remark: listed apart in the source
glucagon receptor (GCGR) [7] = molecular target: glucagon receptor (GCGR); remark: listed apart in the source

Binder | % EC50 compare to KPI (GLP1) [3] | Activity fold reduction compared to OPK-88003 KPI (GLP1) [3] | EC50 [nM] GLP1, CBA potency assay [3] | % EC50 compare to KPI (GCGR) (glucagon receptor (GCGR) [4]) | Activity fold reduction compared to OPK-88003 KPI (GCGR) (glucagon receptor (GCGR) [4]) | EC50 [nM] GCGR, CBA potency assay (glucagon receptor (GCGR) [4]) | EC50 (nM), GLP-1 activity [5] | further results
B1 | 60% | 1.65 fold | 0.21 nM | 38% | 2.65 fold | 1.6 nM | 0.21 nM | % EC50 compare to KPI (GLP1), with HSA added (FA-conjugate + HSA) [1]: 8.9%; % EC50 compare to KPI (GLP1), without HSA [1]: 100%; Activity fold reduction compared to OPK-88003 KPI (GLP1), with HSA added (FA-conjugate + HSA) [1]: 11.2 fold; EC50 [nM] GLP1, CBA potency assay, with HSA added (FA-conjugate + HSA) [1]: 2.27 nM; EC50 [nM] GLP1, CBA potency assay, without HSA [1]: 0.2 nM; % EC50 compare to KPI (GCGR), with HSA added (FA-conjugate + HSA) (glucagon receptor (GCGR) [2]): 2.6%; % EC50 compare to KPI (GCGR), without HSA (glucagon receptor (GCGR) [2]): 45%; Activity fold reduction compared to OPK-88003 KPI (GCGR), with HSA added (FA-conjugate + HSA) (glucagon receptor (GCGR) [2]): 38.6 fold; Activity fold reduction compared to OPK-88003 KPI (GCGR), without HSA (glucagon receptor (GCGR) [2]): 2.2 fold; EC50 [nM] GCGR, CBA potency assay, with HSA added (FA-conjugate + HSA) (glucagon receptor (GCGR) [2]): 52.9 nM; EC50 [nM] GCGR, CBA potency assay, without HSA (glucagon receptor (GCGR) [2]): 3.04 nM
B2 | 45% | 2.2 fold | 0.282 nM | 72% | 1.4 fold | 0.83 nM | 0.13 nM | –
B3 | – | – | – | – | – | – | 0.15 nM | –
B4 | – | – | – | – | – | – | 0.09 nM | EC50 (nM) GLP-1R, GLP-1 activity in vitro [6]: 0.0159 nM; EC50 (nM) GCGR, glucagon activity in vitro (glucagon receptor (GCGR) [7]): 0.164 nM
B5 | – | – | – | – | – | – | 0.1 nM | –
